The results in this text go back to patent US20240210419A1 (UNIVERSITY OF VIRGINIA PATENT FOUNDATION, published 2024).

Assay [1] deals with FN-9*-10 recombinant fibronectin fragment (normal form mimic) (UniProt P02751). The assay can be described thus: ELISA, fibronectin fragment tethered on maleimide-activated plate, colorimetric detection (absorbance).
Assay [2] deals with T1, FN-4G-10 recombinant fibronectin fragment (diseased form mimic) (UniProt P02751 1448-1537; P02751 1538-1631, limits assumed).
T1 construct: domain: 9th type III repeat;domain: 10th type III repeat; also called FnIII9-4G-10; FnIII-4G-10
T1 sequence (P02751 other isoform, or with tags, fused parts or gaps limits assumed): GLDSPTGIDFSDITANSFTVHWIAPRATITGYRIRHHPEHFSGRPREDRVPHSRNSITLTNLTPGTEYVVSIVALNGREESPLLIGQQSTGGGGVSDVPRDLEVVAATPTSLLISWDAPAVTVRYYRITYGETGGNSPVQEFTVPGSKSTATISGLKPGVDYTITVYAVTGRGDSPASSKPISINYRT
The assay is described as above. From the text: (§1) In vitro ELISA binding assays were employed to determine the efficacy of binding of H5 antibodies and derivatives thereof to the diseased form (dise) and the healthy form (norm) of fibronectin. Maleimide activated ELISA plates were used to tether the recombinant fibronectin fragments, which were named as FN-4G-10 and FN-9*-10, and they mimicked diseased and normal form of FN, respectively. Both formats of H5 were used in different molar concentrations starting with 10^-5M and ending with 10-11M. Bound antibodies were detected by colorimetric method.
(§2) The data represents the combination of two independent experiments, one comparing E. coli (eH5) versus N. benthamiana (nicoH5) produced H5-scFv and the second comparing H5-scFv (scFv) to H5-IgG1 (H5-IgG). […] Further, it discriminated the two fragments showing higher affinity for FN-4G-10 (diseased form) compared to FN-9*-10 (Healthy form).

Assay [3] deals with FN-9*-10 recombinant fibronectin fragment (normal form mimic) (UniProt P02751). Briefly: ELISA, fibronectin fragment tethered to maleimide activated plate, colorimetric detection.
The target of assay [4] is T1, FN-4G-10 recombinant fibronectin …. Described as above.
Description: as §1, §2

The target of assay [5] is FN-4G-10 recombinant fibronectin fragment (diseased form mimic) (UniProt P02751). The assay can be described thus: ELISA, fibronectin fragment tethered on maleimide-activated plate, colorimetric detection (absorbance). In general terms: An ELISA detects its analyte on a solid surface through an enzyme-linked reagent.
Chain of FN-4G-10 recombinant fibronectin fragment (diseased form mimic) (UniProt P02751) (P02751 other isoform, or with tags, fused parts or gaps limits assumed): as above

Chain of FN-9*-10 recombinant fibronectin fragment (normal form mimic) (P02751 1448-1631): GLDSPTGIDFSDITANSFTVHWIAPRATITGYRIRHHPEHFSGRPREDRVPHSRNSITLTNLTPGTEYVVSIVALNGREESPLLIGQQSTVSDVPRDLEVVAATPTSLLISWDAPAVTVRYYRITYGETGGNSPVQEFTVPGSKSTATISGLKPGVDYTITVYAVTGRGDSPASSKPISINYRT

B1: modified H5-IgG1 antibody (antibody, V domains shown)
VH: EVQLLESGGGLVQPGGSLRLSCAASGFTFSSYAMSWVRQAPGKGLEWVSDIYDGGGTNYADSVKGRFTTSRDNSKNTLYLQMNSLRAEDTAVYYCAKTADNFDYWGQGTLVTVSS
VL: DIQMTQSPSSLSASVGDRVTITCRASQSISSYLNWYQQKPGKAPKLLIYAASTLQSGVPSRFSGSGSGTDFTLTISSLQPEDFATYYCQQANSAPTTFGQGTKVEIKR
notes: Full length IgG1 format; Made in a plug-and-(dis)play (PnP) hybridoma cell line; also called modified IgG1 format of H5
In general, EC50 (read off the curve) refers to the concentration that produces a half-maximal response. As to B1, the EC50 (read off the curve) in assay [1] is 10 nM; in assay [2], approximately 4 nM. Moreover, the fold higher binding than the H5-scFv format at equimolar concentration in assay [3] is more than 50 fold; in assay [4] it was not below 50 fold.

B2: unmodified H5 antibody (H5-scFv) produced in E. coli (scFv, part only; not given: scFv linker, domain order, tags, V domains shown, not shown: another chain or arm of the molecule; small tags and cut ends)
VH: B1 VH
VL: DIQMTQSPSSLSASVGDRVTITCRASQSISSYLNWYQQKPGKAPKLLIYAASTLQSGVPSRFSGSGSGTDFTLTISSLQPEDFATYYCQQANSAPTTFGQGTKVEIK
Consider B2, for which the EC50 (read off the curve) in assay [5] and in assay [1] was 100 nM in each case.
